Here are results for 1 substance from US20250376490A1, “C[…]-DERIVED PEPTIDE-NUCLEIC ACID HYBRID MOLECULE FOR TREATING INFECTION CAUSED BY MUTATED CORONAVIRUS” (priority 2022, published 2025).

For this assay, the target named is Omicron RBD (Severe acute respiratory syndrome coronavirus 2, UniProt P0DTC2, E484A/G339D/G446S/G496S/K417N/N440K/N501Y/Q493R/Q498R/S371L/S373P/S375F/S477N/T478K/Y505H).

As to R7-02 (LGKGDFRK), the “RBD binding to highly mutated variant (Omicron) versus wild type” value is “most strongly recognized”.
